Results: paper PMC5778602

Target: T1, CstF-50 (full length, affinity tag removed) (human), Q05048
T1 chain: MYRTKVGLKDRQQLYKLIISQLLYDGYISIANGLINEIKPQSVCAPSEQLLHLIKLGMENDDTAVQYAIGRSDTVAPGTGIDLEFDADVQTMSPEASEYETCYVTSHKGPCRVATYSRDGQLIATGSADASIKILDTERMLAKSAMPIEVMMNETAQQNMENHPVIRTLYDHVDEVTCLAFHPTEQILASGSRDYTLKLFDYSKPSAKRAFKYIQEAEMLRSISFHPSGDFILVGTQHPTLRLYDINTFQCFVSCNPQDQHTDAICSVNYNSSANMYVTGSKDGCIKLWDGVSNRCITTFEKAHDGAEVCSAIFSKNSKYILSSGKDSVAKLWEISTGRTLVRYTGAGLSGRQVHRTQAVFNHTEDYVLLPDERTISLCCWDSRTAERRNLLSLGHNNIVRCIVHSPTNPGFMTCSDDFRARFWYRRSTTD
Assay: SEC-MALS
Conditions: remark: other sources report otherwise

B1: CstF-50 (full length, affinity tag removed), Q05048 1-431 (natural protein)
chain: T1 chain
With B1 the stoichiometry N was 2.
